Results as given in patent publication US20230406919A1 (Johns Hopkins, published 2023).

B1: CTNav1.9T (other)
chain: ENFNTATEESEDPLGEDDFDIFYEVWEKFDPEATQFIKYSALSDFADALPEPLRVAKPNKYQFLVMDLPMVSEDRLHCMDILFAFTARVLGGSDGLDSMKAMMEEKFMEANPLKKLYEPIVTTTKRKEEERGAAIIQKAFRKYMMKVTKGDQGDQNDLENGPHS
notes: range 1605-1768; GST tag cleaved
B2: CTNav1.9FL (other)
chain: ENFNTATEESEDPLGEDDFDIFYEVWEKFDPEATQFIKYSALSDFADALPEPLRVAKPNKYQFLVMDLPMVSEDRLHCMDILFAFTARVLGGSDGLDSMKAMMEEKFMEANPLKKLYEPIVTTTKRKEEERGAAIIQKAFRKYMMKVTKGDQGDQNDLENGPHSPLQTLCNGDLSSFGVAKGKVHCD
notes: range 1605-1791; GST tag cleaved
B3: Nb26 (VHH)
VHH: QVQLQESGGGSVQAGGSLRLSCVASGRTFSSYAMAWFRQVPGKEREFVGRISRSGGSTMYADSVKGRFDISRDNAKNTVFLQMSSLKPEDTAVYYCAAKAAVILTGIPDYWGQGTQVTVSS
notes: pHEN4 clone, HA-tagged, periplasmic extract; also called family 4

Key:
[1] = target: T1, Calmodulin (CaM) (mammalian, UniProt P0DP23 1-149); experiment: co-expression in E. coli, GST pull-down and anion exchange chromatography
T1 construct: also called free CaM; CaM alone

[2] = target: T1, Calmodulin (CaM); experiment: periplasmic-extract ELISA, 1:100 extract on 0.1 ug coated Ca2+CaM or apoCaM, anti-HA detection; positive above absorbance 2

Binder | binding result [1] | binding result [2]
B1 | no binding | 
B2 | no binding | 
B3 |  | binds
